Test [1] concerns the target FapF coiled-coil peptide D3–Q40 (Pseudomonas sp. UK4). Description: SEC-MALS; Superdex 200 HR 10/30 column coupled to multiple laser light scattering; isolated coiled-coil peptide. (In general: SEC sorts molecules by how far they enter the pores of the column.)
For test [2], the target named is full-length FapF (FapF 1–406) (Pseudomonas sp. UK4).
Test [3] shares this target. Description: native MS; 0.5 M ammonium acetate pH 7.6 with 0.5% C8E4; nano-electrospray, modified Q-Exactive.

Stoichiometry N and single-channel current recording in planar DPhPC bilayers: voltage-induced gating data for two substances are collected here from paper PMC5557850.

One may read the stoichiometry N as a count of units in the complex or per binding partner.

As to FapF coiled-coil peptide D3–Q40, the stoichiometry N in test [1] was 3.

For “full-length FapF (FapF 1–406) (natural protein)”, in test [2], the single-channel current recording in planar DPhPC bilayers: voltage-induced gating at an applied potential of −250 mV was 3 steps. The stoichiometry N in test [3] came to 3.
